The results in this text go back to patent US20180155451A1 (published 2018).

In test [1] the target is T1, FcγRIa extracellular domain with C-terminal His tag (human, UniProt P12314 16-292).
T1 construct: extracellular domain; soluble receptor expressed in FreeStyle293 cells, used as analyte in Biacore; also called FcgRI; 1a; not shown: His tag attached to the C terminus
The test can be described thus: SPR (Biacore), antibody captured on antigen peptide chip, FcγR as analyte; relative binding.

The target of test [2] is T2, FcγRIIb extracellular domain with C-terminal His tag (human, UniProt P31994 43-217).
T2 construct: extracellular domain; soluble receptor expressed in FreeStyle293 cells, used as analyte in Biacore; also called FcgRIIb; 2b; not shown: His tag attached to the C terminus
T2 sequence (looked up): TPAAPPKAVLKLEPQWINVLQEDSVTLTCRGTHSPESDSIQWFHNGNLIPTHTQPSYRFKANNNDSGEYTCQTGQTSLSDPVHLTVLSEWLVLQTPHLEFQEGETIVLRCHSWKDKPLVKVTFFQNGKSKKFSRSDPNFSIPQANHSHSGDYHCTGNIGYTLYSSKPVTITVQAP
The description is as above.

T1 sequence (P12314 16-292): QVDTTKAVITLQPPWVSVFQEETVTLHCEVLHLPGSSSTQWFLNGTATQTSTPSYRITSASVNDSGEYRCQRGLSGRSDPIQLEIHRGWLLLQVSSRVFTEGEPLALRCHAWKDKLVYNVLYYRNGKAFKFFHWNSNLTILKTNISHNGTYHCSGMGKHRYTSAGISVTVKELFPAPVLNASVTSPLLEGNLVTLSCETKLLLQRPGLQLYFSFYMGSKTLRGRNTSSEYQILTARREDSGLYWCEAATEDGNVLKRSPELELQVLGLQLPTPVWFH

B1: GpH7-A5/GpH7-B3 variant D270_06M/GpL16-k0 (antibody, human IgG1, kappa)
heavy 1: not shown
heavy 2: not shown
light: DIVMTQSPLSLPVTPGEPASISCQASESLVHSNRNTYLHWYLQKPGQSPQLLIYKVSNRFSGVPDRFSGSGSGTDFTLKISRVEAEDVGVYYCSQNTHVPPTFGQGTKVEIERTVAAPSVFIFPPSDEQLKSGTASVVCLLNNFYPREAKVQWKVDNALQSGNSQESVTEQDSKDSTYSLSSTLTLSKADYEKHKVYACEVTHQGLSSPVTKSFNRGEC
notes: heterodimerized anti-glypican-3 IgG1; alteration in the GpH7-B3 chain only; also called He Ab
Regarding B1, the He/Con_1a in test [1] was 78.8 % of control GpH7-A5/GpH7-B3/GpL16-k0 (=100). In addition, the He/Con_2b in test [2] was 48.2 % of control GpH7-A5/GpH7-B3/GpL16-k0 (=100).

B2: GpH7-A5/GpH7-B3 variant D270_15Y/GpL16-k0 (antibody, human IgG1, kappa)
heavy 1: not shown
heavy 2: not shown
light: DIVMTQSPLSLPVTPGEPASISCQASESLVHSNRNTYLHWYLQKPGQSPQLLIYKVSNRFSGVPDRFSGSGSGTDFTLKISRVEAEDVGVYYCSQNTHVPPTFGQGTKVEIERTVAAPSVFIFPPSDEQLKSGTASVVCLLNNFYPREAKVQWKVDNALQSGNSQESVTEQDSKDSTYSLSSTLTLSKADYEKHKVYACEVTHQGLSSPVTKSFNRGEC
notes: as for B1
As for B2, the He/Con_1a in test [1] was 68.5 % of control GpH7-A5/GpH7-B3/GpL16-k0 (=100). The He/Con_2b in test [2] was 44.9 % of control GpH7-A5/GpH7-B3/GpL16-k0 (=100).

B3: GpH7-A5/GpH7-B3 variant D270_14T/GpL16-k0 (antibody, human IgG1, kappa)
heavy 1: not shown
heavy 2: not shown
light: DIVMTQSPLSLPVTPGEPASISCQASESLVHSNRNTYLHWYLQKPGQSPQLLIYKVSNRFSGVPDRFSGSGSGTDFTLKISRVEAEDVGVYYCSQNTHVPPTFGQGTKVEIERTVAAPSVFIFPPSDEQLKSGTASVVCLLNNFYPREAKVQWKVDNALQSGNSQESVTEQDSKDSTYSLSSTLTLSKADYEKHKVYACEVTHQGLSSPVTKSFNRGEC
notes: as for B1
As to B3, the He/Con_1a in test [1] was 70.6 % of control GpH7-A5/GpH7-B3/GpL16-k0 (=100). Further, in test [2], the He/Con_2b was 57.8 % of control GpH7-A5/GpH7-B3/GpL16-k0 (=100).

B4: GpH7-A5/GpH7-B3 variant E269_19Q/GpL16-k0 (antibody, human IgG1, kappa)
heavy 1: not shown
heavy 2: not shown
light: DIVMTQSPLSLPVTPGEPASISCQASESLVHSNRNTYLHWYLQKPGQSPQLLIYKVSNRFSGVPDRFSGSGSGTDFTLKISRVEAEDVGVYYCSQNTHVPPTFGQGTKVEIERTVAAPSVFIFPPSDEQLKSGTASVVCLLNNFYPREAKVQWKVDNALQSGNSQESVTEQDSKDSTYSLSSTLTLSKADYEKHKVYACEVTHQGLSSPVTKSFNRGEC
notes: as for B1
B4: the He/Con_1a in test [1] is 105 % of control GpH7-A5/GpH7-B3/GpL16-k0 (=100). For the same molecule, the He/Con_2b in test [2] was 44.3 % of control GpH7-A5/GpH7-B3/GpL16-k0 (=100).

B5: GpH7-A5/GpH7-B3 variant D270_19Q/GpL16-k0 (antibody, human IgG1, kappa)
heavy 1: not shown
heavy 2: not shown
light: DIVMTQSPLSLPVTPGEPASISCQASESLVHSNRNTYLHWYLQKPGQSPQLLIYKVSNRFSGVPDRFSGSGSGTDFTLKISRVEAEDVGVYYCSQNTHVPPTFGQGTKVEIERTVAAPSVFIFPPSDEQLKSGTASVVCLLNNFYPREAKVQWKVDNALQSGNSQESVTEQDSKDSTYSLSSTLTLSKADYEKHKVYACEVTHQGLSSPVTKSFNRGEC
notes: as for B1
For the molecule B5, the He/Con_1a in test [1] was 78.2 % of control GpH7-A5/GpH7-B3/GpL16-k0 (=100). The He/Con_2b in test [2] was 48 % of control GpH7-A5/GpH7-B3/GpL16-k0 (=100).

B6: GpH7-A5/GpH7-B3 variant D270_07I/GpL16-k0 (antibody, human IgG1, kappa)
heavy 1: not shown
heavy 2: not shown
light: DIVMTQSPLSLPVTPGEPASISCQASESLVHSNRNTYLHWYLQKPGQSPQLLIYKVSNRFSGVPDRFSGSGSGTDFTLKISRVEAEDVGVYYCSQNTHVPPTFGQGTKVEIERTVAAPSVFIFPPSDEQLKSGTASVVCLLNNFYPREAKVQWKVDNALQSGNSQESVTEQDSKDSTYSLSSTLTLSKADYEKHKVYACEVTHQGLSSPVTKSFNRGEC
notes: as for B1
As for B6, the He/Con_1a in test [1] was 74.6 % of control GpH7-A5/GpH7-B3/GpL16-k0 (=100). The He/Con_2b in test [2] was 41.5 % of control GpH7-A5/GpH7-B3/GpL16-k0 (=100).

B7: GpH7-A5/GpH7-B3 variant D270_11K/GpL16-k0 (antibody, human IgG1, kappa)
heavy 1: not shown
heavy 2: not shown
light: DIVMTQSPLSLPVTPGEPASISCQASESLVHSNRNTYLHWYLQKPGQSPQLLIYKVSNRFSGVPDRFSGSGSGTDFTLKISRVEAEDVGVYYCSQNTHVPPTFGQGTKVEIERTVAAPSVFIFPPSDEQLKSGTASVVCLLNNFYPREAKVQWKVDNALQSGNSQESVTEQDSKDSTYSLSSTLTLSKADYEKHKVYACEVTHQGLSSPVTKSFNRGEC
notes: as for B1
B7: in test [1], the He/Con_1a was 58.4 % of control GpH7-A5/GpH7-B3/GpL16-k0 (=100). Besides, the He/Con_2b in test [2] is 20.3 % of control GpH7-A5/GpH7-B3/GpL16-k0 (=100).

B8: GpH7-A5/GpH7-B3 variant E269_20W/GpL16-k0 (antibody, human IgG1, kappa)
heavy 1: not shown
heavy 2: not shown
light: DIVMTQSPLSLPVTPGEPASISCQASESLVHSNRNTYLHWYLQKPGQSPQLLIYKVSNRFSGVPDRFSGSGSGTDFTLKISRVEAEDVGVYYCSQNTHVPPTFGQGTKVEIERTVAAPSVFIFPPSDEQLKSGTASVVCLLNNFYPREAKVQWKVDNALQSGNSQESVTEQDSKDSTYSLSSTLTLSKADYEKHKVYACEVTHQGLSSPVTKSFNRGEC
notes: as for B1
For the molecule B8, in test [1], the He/Con_1a was 105 % of control GpH7-A5/GpH7-B3/GpL16-k0 (=100). In addition, the He/Con_2b in test [2] is 42.5 % of control GpH7-A5/GpH7-B3/GpL16-k0 (=100).

B9: GpH7-A5/GpH7-B3 variant D270_12R/GpL16-k0 (antibody, human IgG1, kappa)
heavy 1: not shown
heavy 2: not shown
light: DIVMTQSPLSLPVTPGEPASISCQASESLVHSNRNTYLHWYLQKPGQSPQLLIYKVSNRFSGVPDRFSGSGSGTDFTLKISRVEAEDVGVYYCSQNTHVPPTFGQGTKVEIERTVAAPSVFIFPPSDEQLKSGTASVVCLLNNFYPREAKVQWKVDNALQSGNSQESVTEQDSKDSTYSLSSTLTLSKADYEKHKVYACEVTHQGLSSPVTKSFNRGEC
notes: as for B1
Consider B9, for which the He/Con_1a in test [1] is 66.3 % of control GpH7-A5/GpH7-B3/GpL16-k0 (=100). Besides, the He/Con_2b in test [2] is 18.3 % of control GpH7-A5/GpH7-B3/GpL16-k0 (=100).

B10: GpH7-A5/GpH7-B3 variant D270_08L/GpL16-k0 (antibody, human IgG1, kappa)
heavy 1: not shown
heavy 2: not shown
light: DIVMTQSPLSLPVTPGEPASISCQASESLVHSNRNTYLHWYLQKPGQSPQLLIYKVSNRFSGVPDRFSGSGSGTDFTLKISRVEAEDVGVYYCSQNTHVPPTFGQGTKVEIERTVAAPSVFIFPPSDEQLKSGTASVVCLLNNFYPREAKVQWKVDNALQSGNSQESVTEQDSKDSTYSLSSTLTLSKADYEKHKVYACEVTHQGLSSPVTKSFNRGEC
notes: as for B1
As for B10, the He/Con_1a in test [1] is 73.5 % of control GpH7-A5/GpH7-B3/GpL16-k0 (=100). For the same molecule, in test [2], the He/Con_2b was 53.6 % of control GpH7-A5/GpH7-B3/GpL16-k0 (=100).

B11: GpH7-A5/GpH7-B3 variant D270_13S/GpL16-k0 (antibody, human IgG1, kappa)
heavy 1: not shown
heavy 2: not shown
light: DIVMTQSPLSLPVTPGEPASISCQASESLVHSNRNTYLHWYLQKPGQSPQLLIYKVSNRFSGVPDRFSGSGSGTDFTLKISRVEAEDVGVYYCSQNTHVPPTFGQGTKVEIERTVAAPSVFIFPPSDEQLKSGTASVVCLLNNFYPREAKVQWKVDNALQSGNSQESVTEQDSKDSTYSLSSTLTLSKADYEKHKVYACEVTHQGLSSPVTKSFNRGEC
notes: as for B1
For the molecule B11, the He/Con_1a in test [1] is 75.3 % of control GpH7-A5/GpH7-B3/GpL16-k0 (=100). Further, the He/Con_2b in test [2] is 44.2 % of control GpH7-A5/GpH7-B3/GpL16-k0 (=100).

B12: GpH7-A5/GpH7-B3 variant D270_16H/GpL16-k0 (antibody, human IgG1, kappa)
heavy 1: not shown
heavy 2: not shown
light: DIVMTQSPLSLPVTPGEPASISCQASESLVHSNRNTYLHWYLQKPGQSPQLLIYKVSNRFSGVPDRFSGSGSGTDFTLKISRVEAEDVGVYYCSQNTHVPPTFGQGTKVEIERTVAAPSVFIFPPSDEQLKSGTASVVCLLNNFYPREAKVQWKVDNALQSGNSQESVTEQDSKDSTYSLSSTLTLSKADYEKHKVYACEVTHQGLSSPVTKSFNRGEC
notes: as for B1
As for B12, in test [1], the He/Con_1a is 66 % of control GpH7-A5/GpH7-B3/GpL16-k0 (=100). For the same molecule, in test [2], the He/Con_2b was 47.2 % of control GpH7-A5/GpH7-B3/GpL16-k0 (=100).

B13: GpH7-A5/GpH7-B3 variant D270_20W/GpL16-k0 (antibody, human IgG1, kappa)
heavy 1: not shown
heavy 2: not shown
light: DIVMTQSPLSLPVTPGEPASISCQASESLVHSNRNTYLHWYLQKPGQSPQLLIYKVSNRFSGVPDRFSGSGSGTDFTLKISRVEAEDVGVYYCSQNTHVPPTFGQGTKVEIERTVAAPSVFIFPPSDEQLKSGTASVVCLLNNFYPREAKVQWKVDNALQSGNSQESVTEQDSKDSTYSLSSTLTLSKADYEKHKVYACEVTHQGLSSPVTKSFNRGEC
notes: as for B1
B13: the He/Con_1a in test [1] was 68 % of control GpH7-A5/GpH7-B3/GpL16-k0 (=100). Moreover, in test [2], the He/Con_2b was 34.7 % of control GpH7-A5/GpH7-B3/GpL16-k0 (=100).

B14: GpH7-A5/GpH7-B3 variant D270_18N/GpL16-k0 (antibody, human IgG1, kappa)
heavy 1: not shown
heavy 2: not shown
light: DIVMTQSPLSLPVTPGEPASISCQASESLVHSNRNTYLHWYLQKPGQSPQLLIYKVSNRFSGVPDRFSGSGSGTDFTLKISRVEAEDVGVYYCSQNTHVPPTFGQGTKVEIERTVAAPSVFIFPPSDEQLKSGTASVVCLLNNFYPREAKVQWKVDNALQSGNSQESVTEQDSKDSTYSLSSTLTLSKADYEKHKVYACEVTHQGLSSPVTKSFNRGEC
notes: as for B1
For B14, the He/Con_1a in test [1] is 67.8 % of control GpH7-A5/GpH7-B3/GpL16-k0 (=100). Moreover, the He/Con_2b in test [2] is 40.3 % of control GpH7-A5/GpH7-B3/GpL16-k0 (=100).
